Source: the Human Domainome abundance scans (Beltran et al. 2025)
± gives the uncertainty stated by the source.

B1: E3 ubiquitin-protein ligase NEDD4, residues 836 to 881; numbered along this chain, P46934 (parent)
chain: EIEQGFLPKGWEVRHAPNGRPFFIDHNTKTTTWEDPRLKIPAHLRG
B2: V(D)J recombination-activating protein 2, residues 415 to 491; numbered along this chain, P55895 (parent)
chain: YWITCCPTCDVDINTWVPFYSTELNKPAMIYCSHGDGHWVHAQCMDLAERTLIHLSAGSNKYYCNEHVEIARALHTP

Variants of: B1
Assay: abundance fitness (aPCA) (normalised: wild type 0, dead -1); higher = more abundant; growth selection in yeast, the domain comes from the species named
Settings: Homo sapiens

Variant	abundance fitness
Q4E	0.12 ± 0.077
Q4C	0.012 ± 0.057
Q4M	-0.387 ± 0.084
Q4T	-0.242 ± 0.075
Q4I	-0.335 ± 0.084
Q4D	-0.285 ± 0.11
Q4A	-0.146 ± 0.048
Q4G	-0.09 ± 0.045
Q4F	0.067 ± 0.074
V13Y	-0.799 ± 0.2
V13K	-0.032 ± 0.045
V13H	-0.724 ± 0.23
V13Q	-0.135 ± 0.058
V13A	-0.266 ± 0.036
V13P	-0.764 ± 0.14
V13M	0.05 ± 0.032
V13C	-0.252 ± 0.052
V13S	-0.399 ± 0.048
V13F	-0.159 ± 0.084
V13T	-0.529 ± 0.09
V13R	-0.149 ± 0.034
V13N	-0.836 ± 0.23
V13L	-0.122 ± 0.03
V13W	-0.842 ± 0.12
V13E	0.069 ± 0.062

Variant	abundance fitness
V13G	-0.747 ± 0.07
L7R	-1.03 ± 0.13
L7F	-0.459 ± 0.098
L7N	-1.01 ± 0.37
L7G	-0.524 ± 0.048
L7H	-0.543 ± 0.12
L7Y	-0.915 ± 0.23
L7I	-0.493 ± 0.1
L7T	-0.441 ± 0.1
L7Q	-0.38 ± 0.14
L7K	-0.601 ± 0.054
L7C	-0.882 ± 0.16
L7S	-0.573 ± 0.055
L7A	-0.599 ± 0.061
L7W	-0.577 ± 0.11
L7M	-0.186 ± 0.037
L7P	-0.473 ± 0.096
L7E	-0.437 ± 0.056
H15N	-0.113 ± 0.037
H15G	-0.508 ± 0.065
H15L	-0.013 ± 0.033
H15R	-0.004 ± 0.033
H15C	0.166 ± 0.064
H15P	-0.507 ± 0.083
H15D	-0.031 ± 0.092

Variant	abundance fitness
H15K	0.081 ± 0.064
H15Q	-0.257 ± 0.098
H15Y	-0.147 ± 0.071
H15F	-0.074 ± 0.087
H15M	-0.34 ± 0.084
H15I	-0.051 ± 0.081
H15T	-0.047 ± 0.042
H15A	-0.095 ± 0.079
H15W	-0.133 ± 0.049
H15E	-0.116 ± 0.072
E3W	-0.35 ± 0.089
E3L	-0.421 ± 0.1
E3I	-0.15 ± 0.11
E3V	-0.162 ± 0.057
E3N	0.097 ± 0.083
E3M	-0.073 ± 0.071
E3A	-0.251 ± 0.057
E3R	-0.366 ± 0.044
E3Q	0.098 ± 0.066
E3T	-0.029 ± 0.042
E3C	-0.141 ± 0.078
E3Y	-0.07 ± 0.092
E3F	-0.109 ± 0.098
E3G	-0.044 ± 0.041
E3K	-0.096 ± 0.074

Variant	abundance fitness
E3D	-0.455 ± 0.11
R14G	-0.114 ± 0.044
R14M	-0.525 ± 0.08
R14A	-0.156 ± 0.048
R14W	-0.458 ± 0.061
R14P	-0.407 ± 0.13
R14I	-0.556 ± 0.094
R14E	-0.539 ± 0.091
R14S	-0.297 ± 0.042
R14H	-0.47 ± 0.12
R14T	-0.562 ± 0.075
R14D	-0.289 ± 0.034
R14C	-0.07 ± 0.047
R14F	-0.272 ± 0.054
R14Y	-0.407 ± 0.054
R14Q	-0.121 ± 0.08
R14N	-0.783 ± 0.17
P17C	-0.295 ± 0.055
P17Y	-0.662 ± 0.13
P17K	-0.115 ± 0.084
P17V	-0.191 ± 0.045
P17N	-0.308 ± 0.1
P17T	-0.298 ± 0.07
P17R	-0.178 ± 0.053
P17H	-0.276 ± 0.13

Variant	abundance fitness
P17A	-0.075 ± 0.064
P17F	-0.447 ± 0.049
P17Q	-0.585 ± 0.17
P17L	-0.197 ± 0.058
P17E	0.016 ± 0.053
P17W	-0.419 ± 0.077
P17I	-0.012 ± 0.15
P17G	-0.323 ± 0.063
W11I	-0.459 ± 0.1
W11E	-0.326 ± 0.044
W11F	-0.795 ± 0.21
W11G	-0.575 ± 0.037
W11S	-0.424 ± 0.048
W11T	-0.792 ± 0.17
W11L	-0.648 ± 0.073
W11H	-0.761 ± 0.21
W11N	-0.106 ± 0.091
W11P	-0.817 ± 0.12
W11M	-0.563 ± 0.058
W11A	-0.79 ± 0.096
W11Q	-0.455 ± 0.068
W11K	-0.409 ± 0.063
W11D	-0.539 ± 0.16
W11C	-0.418 ± 0.094

Variants of: B2
Assay: as above
Settings: Homo sapiens

Variant	abundance fitness
L74Q	-0.062 ± 0.25
H75R	-0.001 ± 0.058
H75L	-0.013 ± 0.049
H75E	0.029 ± 0.12
H75K	-0.003 ± 0.1
H75N	0.051 ± 0.26
H75C	-0.155 ± 0.092
H75V	-0.075 ± 0.08
H75F	-0.087 ± 0.1
H75P	-0.111 ± 0.063
H75S	-0.042 ± 0.081
H75D	0.094 ± 0.12
H75W	-0.069 ± 0.064
H75T	0.089 ± 0.068
H75Q	0.089 ± 0.11
H75Y	-0.179 ± 0.1
H75G	0.087 ± 0.11
H75A	0.002 ± 0.08
H75I	-0.003 ± 0.14
T76C	-0.416 ± 0.18
T76S	-0.046 ± 0.077
T76W	-0.321 ± 0.11

Variant	abundance fitness
T76N	-0.13 ± 0.13
T76V	-0.074 ± 0.064
T76P	0.054 ± 0.11
T76K	0.081 ± 0.094
T76G	-0.057 ± 0.056
T76F	-0.373 ± 0.17
T76R	-0.091 ± 0.073
T76H	-0.149 ± 0.2
T76M	-0.034 ± 0.089
T76L	-0.029 ± 0.078
T76A	0.005 ± 0.076
T76Q	-0.009 ± 0.097
T76I	-0.155 ± 0.14
P77N	-0.325 ± 0.35
P77W	-0.237 ± 0.38
P77S	-0.354 ± 0.29
P77G	-0.157 ± 0.35
P77Q	-0.011 ± 0.26
P77R	0.152 ± 0.31
P77A	-0.123 ± 0.21
P77C	-0.243 ± 0.34
